Consider three sequences from PMC5437177.

The target in this data set is T1, ABI5 (Arabidopsis thaliana) (UniProt Q9SJN0).
T1 sequence: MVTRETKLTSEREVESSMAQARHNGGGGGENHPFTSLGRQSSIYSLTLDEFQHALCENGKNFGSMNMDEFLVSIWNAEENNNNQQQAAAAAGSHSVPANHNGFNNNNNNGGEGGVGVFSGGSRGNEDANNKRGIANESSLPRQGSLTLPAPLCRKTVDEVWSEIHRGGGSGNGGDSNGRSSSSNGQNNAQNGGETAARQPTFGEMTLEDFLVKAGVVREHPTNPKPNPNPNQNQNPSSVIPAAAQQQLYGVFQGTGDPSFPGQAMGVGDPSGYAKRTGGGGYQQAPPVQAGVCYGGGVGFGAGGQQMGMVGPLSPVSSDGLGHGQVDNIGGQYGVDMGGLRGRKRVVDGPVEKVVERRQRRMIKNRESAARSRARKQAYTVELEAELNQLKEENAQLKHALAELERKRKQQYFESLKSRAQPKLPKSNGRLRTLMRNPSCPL
The data set can be described thus: EMSA. The note with it: 25 mM HEPES pH 8.0, 40 mM KCl, 5 mM MgCl2, 1 mM DTT, 1 mM EDTA, 8% glycerol, 1 ug/uL poly(dI-dC), 30 min room temperature; 5% native PAGE at 4 C.
With “TCCTGAAATGGATCAACAATTGTCTAATTATGGTATAGTATCTGGCGAAATCAAAGACGATATCATCCACACGTAATTAGTTTGACTATTAATACGAGGATTATCATTTGGATAAGGATTAACAAAGACAAAACACATACGTGTTTTGGTGTTGAGCTAAAATAAGATATTTTGGCTCTCGCTATAAA (double strand) [pCAT1 wild type probe (-296/-108)]”, the binding entry is on record as “binds”.
Then “TCCTGAAATGGATCAACAATTGTCTAATTATGGTATAGTATCTGGCGAAATCAAAGACGATATCATCCACACGTAATTAGTTTGACTATTAATACGAGGATTATCATTTGGATAAGGATTAACAAAGACAAAACACATTTTTGTTTTGGTGTTGAGCTAAAATAAGATATTTTGGCTCTCGCTATAAA (double strand) [pCAT1 box2 mutation probe]”, with “binds more weakly”.
As for “TCCTGAAATGGATCAACAATTGTCTAATTATGGTATAGTATCTGGCGAAATCAAAGACGATATCATCCACTTTTAATTAGTTTGACTATTAATACGAGGATTATCATTTGGATAAGGATTAACAAAGACAAAACACATACGTGTTTTGGTGTTGAGCTAAAATAAGATATTTTGGCTCTCGCTATAAA (double strand) [pCAT1 box1 mutation probe]”, the binding entry is recorded as “binds more weakly”.
